B1: IFRG15 (parent)
chain: INRADYCPECYPDNPANRSLVLPW

Variants of: B1
Experiment: protein stability index of a GFP-peptide fusion (GPS, HEK-293T) (PSI 1-6); higher = more stable
Details: c terminus: a fixed tail appended
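Note: lentivirally expressed fusions sorted by FACS into six bins by GFP to DsRed ratio, PSI derived from sequencing read proportions per bin multiplied by bin number.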

Variant	protein stability index
INRADWCPECYPDNPANRSLVLPW	2.3
INRADVCPECYPDNPANRSLVLPW	2.46
INRADQCPECYPDNPANRSLVLPW	3.12
INRADSCPECYPDNPANRSLVLPW	3.25
INRADTCPECYPDNPANRSLVLPW	3.14
INRADRCPECYPDNPANRSLVLPW	2.44
INRADYEPECYPDNPANRSLVLPW	2.5
INRADYIPECYPDNPANRSLVLPW	2.27
INRADYQPECYPDNPANRSLVLPW	2.74
INRADYPPECYPDNPANRSLVLPW	2.42
INRADYNPECYPDNPANRSLVLPW	2.81
INRADYDPECYPDNPANRSLVLPW	3.72
INRADYGPECYPDNPANRSLVLPW	2.62
INRADYRPECYPDNPANRSLVLPW	2.73
INRADYLPECYPDNPANRSLVLPW	1.97
INRADYMPECYPDNPANRSLVLPW	2.08
INRADYWPECYPDNPANRSLVLPW	1.43
INRADYKPECYPDNPANRSLVLPW	2.95
INRADYTPECYPDNPANRSLVLPW	2.68
INRADYFPECYPDNPANRSLVLPW	2.28
INRADYYPECYPDNPANRSLVLPW	2.41
INRADYAPECYPDNPANRSLVLPW	2.58
INRADYVPECYPDNPANRSLVLPW	2.34
INRADYHPECYPDNPANRSLVLPW	2.13

Variant	protein stability index
INRADYSPECYPDNPANRSLVLPW	3.23
INRADYCPRCYPDNPANRSLVLPW	2.02
INRADYCPVCYPDNPANRSLVLPW	3.07
INRADYCPGCYPDNPANRSLVLPW	1.66
INRADYCPWCYPDNPANRSLVLPW	1.58
INRADYCPLCYPDNPANRSLVLPW	2.07
INRADYCPNCYPDNPANRSLVLPW	1.92
INRADYCPICYPDNPANRSLVLPW	1.38
INRADYCPKCYPDNPANRSLVLPW	1.63
INRADYCPMCYPDNPANRSLVLPW	1.82
INRADYCPACYPDNPANRSLVLPW	2.71
INRADYCPDCYPDNPANRSLVLPW	2.39
INRADYCPPCYPDNPANRSLVLPW	3.15
INRADYCPHCYPDNPANRSLVLPW	1.63
INRADYCPCCYPDNPANRSLVLPW	2.4
INRADYCPQCYPDNPANRSLVLPW	1.62
INRADYCPFCYPDNPANRSLVLPW	1.78
INRADYCPTCYPDNPANRSLVLPW	1.86
INRADYCPYCYPDNPANRSLVLPW	1.31
INRADYCPSCYPDNPANRSLVLPW	1.86
INRADYCPERYPDNPANRSLVLPW	2.29
INRADYCPETYPDNPANRSLVLPW	2.35
INRADYCPEQYPDNPANRSLVLPW	3.09
INRADYCPEIYPDNPANRSLVLPW	1.74

Variant	protein stability index
INRADYCPEDYPDNPANRSLVLPW	3.65
INRADYCPEFYPDNPANRSLVLPW	2.66
INRADYCPEEYPDNPANRSLVLPW	2.83
INRADYCPEGYPDNPANRSLVLPW	2.81
INRADYCPESYPDNPANRSLVLPW	2.92
INRADYCPEWYPDNPANRSLVLPW	2.07
INRADYCPEHYPDNPANRSLVLPW	2.6
INRADYCPEMYPDNPANRSLVLPW	2.83
INRADYCPEAYPDNPANRSLVLPW	2.41
INRADYCPEPYPDNPANRSLVLPW	3.17
INRADYCPEYYPDNPANRSLVLPW	2.31
INRADYCPELYPDNPANRSLVLPW	2.31
INRADYCPEVYPDNPANRSLVLPW	2.32
INRADYCPEKYPDNPANRSLVLPW	2.59
INRADYCPENYPDNPANRSLVLPW	2.62
INRADYCPECYPLNPANRSLVLPW	2.53
INRADYCPECYPNNPANRSLVLPW	2.08
INRADYCPECYPQNPANRSLVLPW	2.28
INRADYCPECYPCNPANRSLVLPW	1.97
INRADYCPECYPWNPANRSLVLPW	2.18
INRADYCPECYPANPANRSLVLPW	1.94
INRADYCPECYPPNPANRSLVLPW	2.11
INRADYCPECYPMNPANRSLVLPW	2.25
INRADYCPECYPHNPANRSLVLPW	2.07

Variant	protein stability index
INRADYCPECYPENPANRSLVLPW	1.86
INRADYCPECYPSNPANRSLVLPW	1.82
INRADYCPECYPINPANRSLVLPW	1.71
INRADYCPECYPVNPANRSLVLPW	1.63
INRADYCPECYPFNPANRSLVLPW	1.56
INRADYCPECYPTNPANRSLVLPW	2.37
INRADYCPECYPGNPANRSLVLPW	1.98
INRADYCPECYPKNPANRSLVLPW	1.68
INRADYCPECYPYNPANRSLVLPW	1.57
INRADYCPECYPRNPANRSLVLPW	1.69
INRADYCPECCPDNPANRSLVLPW	3.16
INRADYCPECFPDNPANRSLVLPW	2.2
INRADYCPECDPDNPANRSLVLPW	3.28
INRADYCPECRPDNPANRSLVLPW	2.72
INRADYCPECEPDNPANRSLVLPW	2.73
INRADYCPECWPDNPANRSLVLPW	2.1
INRADYCPECAPDNPANRSLVLPW	1.96
INRADYCPECNPDNPANRSLVLPW	2.23
INRADYCPECVPDNPANRSLVLPW	2.8
INRADYCPECQPDNPANRSLVLPW	2.58
INRADYCPECIPDNPANRSLVLPW	2.25
INRADYCPECPPDNPANRSLVLPW	3.15
